Source: US20230174609A1, “EXTENDED TIME ACTION ACYLATED INSULIN COMPOUNDS” (Eli Lilly and Company, priority 2020, published 2023)
pKi: −log10 of the molar value.

Tests used:
[1] = biological target: human insulin receptor subtype A (hIR-A) (human) (UniProt P06213); assay: cell-based or functional assay
[2] = biological target: human insulin receptor subtype B (hIR-B) containing a C-terminal C9 tag (human) (UniProt P06213); assay: cell-based or functional assay
[3] = biological target: human insulin receptor subtype B (hIR-B) containing a C-terminal C9 tag (human) (UniProt P06213); assay: SPA competitive radioligand binding, hIR-B membranes, 0.1% BSA
[4] = biological target: human insulin receptor subtype B (hIR-B) containing a C-terminal C9 tag (human) (UniProt P06213); assay: SPA competitive radioligand binding, hIR-B membranes, 0.1% HSA
[5] = biological target: human insulin receptor subtype B (hIR-B) containing a C-terminal C9 tag (human) (UniProt P06213); assay: SPA competitive radioligand binding, hIR-B membranes, 0.001% NP-40

| Substance | receptor tyrosine auto-phosphorylation in HEK293 cells, ELISA, EC50, 0.1% BSA [1] | receptor tyrosine auto-phosphorylation in HEK293 cells, ELISA, EC50, 0.1% Casein [1] | receptor tyrosine auto-phosphorylation in HEK293 cells, ELISA, EC50, 0.1% BSA [2] | receptor tyrosine auto-phosphorylation in HEK293 cells, ELISA, EC50, 0.1% Casein [2] | pKi [3] | pKi [4] | pKi [5] |
| --- | --- | --- | --- | --- | --- | --- | --- |
| Example 1 (A14E, B16H, B25H, desB30 human insulin acylated at Lys B29 with HO2C-(CH2)18-CO-γGlu-γGlu-γGlu-Lys-Gly-) (ligand) | 2550 nM | 588 nM | 1560 nM | – | – | – | – |
| Example 2 (A14E, B16H, B25H, desB30 human insulin acylated at Lys B29 with HO2C-(CH2)18-CO-γGlu-γGlu-γGlu-Lys-(2-[2-(2-aminoethoxy)ethoxy]acetic acid)-) (ligand) | 3040 nM | 478 nM | 1790 nM | – | – | – | – |
| Example 3 (A14E, B16H, B25H, desB30 human insulin acylated at Lys B29 with HO2C-(CH2)18-CO-γGlu-γGlu-γGlu-εLys-Gly-) (ligand) | 3180 nM | 627 nM | 1220 nM | 183 nM | – | – | – |
| insulin-like growth factor 1 (IGF-1) (from UniProt P05019 49-118) (ligand) | – | – | 771 nM | 577 nM | 7.17 | 7.27 | 7.06 |
